The values that follow come from publication PMC6635409.

The experiment has as its target nicotinic acetylcholine receptor subunit α9 (CHRNA9) (human (endogenous in BT474, MDA-MB-231, A549, RT4, MIA PaCa-2 and clinical breast tumors)) (UniProt Q9UGM1). In words: co-IP; endogenous proteins in MDA-MB-231 cells; reciprocal IPs, 1% NP40 lysis buffer, Protein G beads; IP ratio (IPR) against input, threshold >3% in both.

“And” between values parts separate entries of the source, which are not always exact repeats. Identical values can stand only once.

UniProt Q9UGM1, sequence (Q9UGM1 23-479): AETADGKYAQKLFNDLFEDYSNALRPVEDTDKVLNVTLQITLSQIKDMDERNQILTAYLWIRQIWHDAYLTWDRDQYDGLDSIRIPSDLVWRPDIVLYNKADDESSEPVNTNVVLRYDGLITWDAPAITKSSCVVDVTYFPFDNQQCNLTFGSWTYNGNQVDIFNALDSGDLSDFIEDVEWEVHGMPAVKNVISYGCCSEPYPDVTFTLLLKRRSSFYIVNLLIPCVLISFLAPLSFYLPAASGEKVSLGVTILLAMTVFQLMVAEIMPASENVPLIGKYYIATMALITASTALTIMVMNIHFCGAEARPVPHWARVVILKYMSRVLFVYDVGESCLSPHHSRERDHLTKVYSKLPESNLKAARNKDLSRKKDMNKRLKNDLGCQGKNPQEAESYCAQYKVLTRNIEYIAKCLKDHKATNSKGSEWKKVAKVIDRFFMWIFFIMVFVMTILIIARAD

“ABCB1 (from UniProt P08183 1-1280) (natural protein)”: the IP ratio (IPR) is 3.05% and 25.1%.
